Results on two proteins are retold here after patent US20220125891.

The target of the data set is T1, human Regnase-1 of Example 15 (full length, GST tag cleaved off, BirA recognition sequence on the C-terminal side, biotinylated).
T1 sequence (Q5D1E8 1-599, looked up): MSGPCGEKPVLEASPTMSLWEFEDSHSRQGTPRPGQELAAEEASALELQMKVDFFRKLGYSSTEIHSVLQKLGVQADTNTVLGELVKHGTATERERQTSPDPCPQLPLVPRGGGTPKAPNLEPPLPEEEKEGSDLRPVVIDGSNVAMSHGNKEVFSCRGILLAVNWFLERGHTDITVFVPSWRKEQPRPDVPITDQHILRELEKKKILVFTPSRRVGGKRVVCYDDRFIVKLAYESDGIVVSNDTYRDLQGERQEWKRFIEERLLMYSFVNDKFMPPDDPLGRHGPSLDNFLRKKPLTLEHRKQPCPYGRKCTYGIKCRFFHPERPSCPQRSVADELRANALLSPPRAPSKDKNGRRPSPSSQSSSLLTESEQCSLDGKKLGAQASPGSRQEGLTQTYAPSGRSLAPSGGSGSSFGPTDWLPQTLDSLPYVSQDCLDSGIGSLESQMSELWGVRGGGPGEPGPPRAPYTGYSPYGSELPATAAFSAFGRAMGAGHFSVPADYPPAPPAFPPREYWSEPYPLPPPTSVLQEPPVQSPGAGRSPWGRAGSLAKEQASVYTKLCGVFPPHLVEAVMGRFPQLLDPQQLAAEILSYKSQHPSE

B1: TBK1 (manufactured by SignalChem) (protein)
chain: MQSTSNHLWLLSDILGQGATANVFRGRHKKTGDLFAIKVFNNISFLRPVDVQMREFEVLKKLNHKNIVKLFAIEEETTTRHKVLIMEFCPCGSLYTVLEEPSNAYGLPESEFLIVLRDVVGGMNHLRENGIVHRDIKPGNIMRVIGEDGQSVYKLTDFGAARELEDDEQFVSLYGTEEYLHPDMYERAVLRKDHQKKYGATVDLWSIGVTFYHAATGSLPFRPFEGPRRNKEVMYKIITGKPSGAISGVQKAENGPIDWSGDMPVSCSLSRGLQVLLTPVLANILEADQEKCWGFDQFFAETSDILHRMVIHVFSLQQMTAHKIYIHSYNTATIFHELVYKQTKIISSNQELIYEGRRLVLEPGRLAQHFPKTTEENPIFVVSREPLNTIGLIYEKISLPKVHPRYDLDGDASMAKAITGVVCYACRIASTLLLYQELMRKGIRWLIELIKDDYNETVHKKTEVVITLDFCIRNIEKTVKVYEKLMKINLEAAELGEISDIHTKLLRLSSSQGTIETSLQDIDSRLSPGGSLADAWAHQEGTHPKDRNVEKLQVLLNCMTEIYYQFKKDKAERRLAYNEEQIHKFDKQKLYYHATKAMTHFTDECVKKYEAFLNKSEEWIRKMLHLRKQLLSLTNQCFDIEEEVSKYQEYTNELQETLPQKMFTASSGIKHTMTPIYPSSNTLVEMTLGMKKLKEEMEGVVKELAENNHILERFGSLTMDGGLRNVDCL
Take B1: the “phosphorylation detected by Western blotting” value was “it was confirmed that human Regnase-1 is phosphorylated by IKKβ and TBK1”.

B2: IKKβ (manufactured by SignalChem) (protein)
chain: MSWSPSLTTQTCGAWEMKERLGTGGFGNVIRWHNQETGEQIAIKQCRQELSPRNRERWCLEIQIMRRLTHPNVVAARDVPEGMQNLAPNDLPLLAMEYCQGGDLRKYLNQFENCCGLREGAILTLLSDIASALRYLHENRIIHRDLKPENIVLQQGEQRLIHKIIDLGYAKELDQGSLCTSFVGTLQYLAPELLEQQKYTVTVDYWSFGTLAFECITGFRPFLPNWQPVQWHSKVRQKSEVDIVVSEDLNGTVKFSSSLPYPNNLNSVLAERLEKWLQLMLMWHPRQRGTDPTYGPNGCFKALDDILNLKLVHILNMVTGTIHTYPVTEDESLQSLKARIQQDTGIPEEDQELLQEAGLALIPDKPATQCISDGKLNEGHTLDMDLVFLFDNSKITYETQISPRPQPESVSCILQEPKRNLAFFQLRKVWGQVWHSIQTLKEDCNRLQQGQRAAMMNLLRNNSCLSKMKNSMASMSQQLKAKLDFFKTSIQIDLEKYSEQTEFGITSDKLLLAWREMEQAVELCGRENEVKLLVERMMALQTDIVDLQRSPMGRKQGGTLDDLEEQARELYRRLREKPRDQRTEGDSQEMVRLLLQAIQSFEKKVRVIYTQLSKTVVCKQKALELLPKVEEVVSLMNEDEKTVVRLQEKRQKELWNLLKIACSKVRGPVSGSPDSMNASRLSQPGQLMSQPSTASNSLPEPAKKSEELVAEAHNLCTLLENAIQDTVREQDQSFTALDWSWLQTEEEEHSCLEQAS
For B2, the “phosphorylation detected by Western blotting” value was “it was confirmed that human Regnase-1 is phosphorylated by IKKβ and TBK1”.
